Data: article PMC3159451

B1: Thy104Gua (dsDNA)
DNA 1: GGAGCGGCTC
DNA 2: GAGCCGCTCC
modifications: 5-methyl-C at position 5 of both strands
B2: Gua107Thy (dsDNA)
DNA 1: GGATCGTCTC
DNA 2: GAGACGATCC
modifications: 5-methyl-C at position 5 of both strands
B3: Inverted (dsDNA)
DNA 1: GGACCGACTC
DNA 2: GAGTCGGTCC
modifications: 5-methyl-C at position 5 of both strands
B4: rho-globin mCpG WT 10 bp (dsDNA)
DNA 1: GGATCGGCTC
DNA 2: GAGCCGATCC
modifications: 5-methyl-C at position 5 of both strands (mC105, mC115)

How the values were obtained:
Assay in all cases: SPR
cMBD2 MBD WT = cMBD2 MBD WT (Gallus gallus (chicken), UniProt Q5EFL0 2-71)
cMBD2 MBD R46C = cMBD2 MBD R46C (Gallus gallus (chicken), UniProt Q5EFL0 2-71, R45C)
cMBD2 MBD K32A = cMBD2 MBD K32A (Gallus gallus (chicken), UniProt Q5EFL0 2-71, K31A)
cMBD2 MBD R67M = cMBD2 MBD R67M (Gallus gallus (chicken), UniProt Q5EFL0 2-71, R66M)
cMBD2 MBD Y36F = cMBD2 MBD Y36F (Gallus gallus (chicken), UniProt Q5EFL0 2-71, Y35F)
cMBD2 MBD K19W = cMBD2 MBD K19W (Gallus gallus (chicken), UniProt Q5EFL0 2-71, K18W)

Binder	Kd (cMBD2 MBD WT)	Kd (cMBD2 MBD R46C)	Kd (cMBD2 MBD K32A)	Kd (cMBD2 MBD R67M)	Kd (cMBD2 MBD Y36F)	Kd (cMBD2 MBD K19W)
B1	2200 ± 100 nM	–	–	–	–	–
B2	29000 ± 2000 nM	–	–	–	–	–
B3	2300 ± 500 nM	–	–	–	–	–
B4	2100 ± 100 nM	590 ± 71 µM	291 ± 19 µM	197 ± 17 µM	109 ± 3 µM	135 ± 17 µM
